Assay: soluble on expression in E. coli; label from the status in PepcDB or PDB records

Sequence | soluble on expression in E. coli
MSLLIRELETNDLDNFPEIDDSFIVNARLMLSLSKVNRRIEYTVEDVPSYEKSYLQNDNEELVYNEYINKPNQIIYIALLHNQIIGFIVLKKNWNNYAYIEDITVDKKYRTLGVGKRLIAQAKQWAKEGNMPGIMLETQNNNVAACKFYEKCGFVIGGFDFLVYKGLNMTSDEVAIYWYLHFDS | not soluble
MSLLKLFDAHFHIIDYRFPLIANQSYLPPEFTVEDYLQRAKPLNICGGAVVSGSFQAFDQTYLLTALSVLGPNFVGVTQLPATVSDEEIIQLNQHGIRAVRFNLKRGGSESIHQLKYFAHRIYEMVRWHVEIYVDSKELGDLTNLLLELPAVSIDHLGLSQSGFSELLHLVEHGIKIKASGFGRVDFDVKKALQTIAQISPDALLFGTDLPSTRAPLPFLDSDIQLIQDLFDEELTEKILYRNACNFYSKNEGHHHHHH | soluble
MSLLKQRFVLDTTALTDLQTREVMGYASLCEGMKAILDLIADARLHFGISCYVPYPSVYKEMYEFASRNGCDREVVAKIDTWLVKKSPDRYRVSVTSQIFHEYVAYMRERINRGMGVAEDAIWEAATECLFMENPQNKKKEYKEEVEREVIGGIIGKFRNKYRAALRYGILDSAPDIDVLILAKELDAAVIASDYGIEKWAEQLGVRFVPANVFPMMIQEYLKHLPENENEPEYENRDKSKEGSSGEIEFIEGHHHHHH | soluble
MSLLQSALDFLAGPGSLGGASGRDQSDFVGQTVELGELRLRVRRVLAEGGFAFVYEAQDVGSGREYALKRLLSNEEEKNRAIIQEVCFMKKLSGHPNIVQFCSAASIGKEESDTGQAEFLLLTELCKGQLVEFLKKMESRGPLSCDTVLKIFYQTCRAVQHMHRQKPPIIHRDLKVENLLLSNQGTIKLCDFGSATTISHYPDYSWSAQRRALVEEEITRNTTPMYRTPEIIDLYSNFPIGEKQDIWALGCILYLLCFRQHPFEDGAKLRIVNGKYSIPPHDTQYTVFHSLIRAMLQVNPEERLSIAEVVHQLQEIAAARNVNPKSPITELLEQNGGYGSATLSRGPPPPVGPAGSGYSGGLALAEYDQPYGGFLDILRGGTERLFTNLKDTSSKVIQSVANYAKGDLDISYITSRIAVMSFPAEGVESALKNNIEDVRLFLDSKHPGHYAVYNLSPRTYRPSRFHNRVSECGWAARRAPHLHTLYNICRNMHAWLRQDHKNVCVVHCMDGRAASAVAVCSFLCFCRLFSTAEAAVYMFSMKRCPPGIWPSHKRYIEYMCDMVAEEPITPHSKPILVRAVVMTPVPLFSKQRSGCRPFCEVYVGDERVASTSQEYDKMRDFKIEDGKAVIPLGVTVQGDVLIVIYHARSTLGGRLQAKMASMKMFQIQFHTGFVPRNATTVKFAKYDLDACDIQEKYPDLFQVNLEVEVEPRDRPSREAPPWENSSMRGLNPKILFSSREEQQDILSKFGKPELPRQPGSTAQYDAGAGSPEAEPTDSDSPPSSSADASRFLHTLDWQEEKEAETGAENASSKESESALMEDRDESEVSDEGGSPISSEGQEPRADPEPPGLAAGLVQQDLVFEVETPAVLPEPVPQEDGVDLLGLHSEVGAGPAVPPQACKAPSSNTDLLSCLLGPPEAASQGPPEDLLSEDPLLLASPAPPLSVQSTPRGGPPAAADPFGPLLPSSGNNSQPCSNPDLFGEFLNSDSVTVPPSFPSAHSAPPPSCSADFLHLGDLPGEPSKMTASSSNPDLLGGWAAWTETAASAVAPTPATEGPLFSPGGQPAPCGSQASWTKSQNPDPFADLGDLSSGLQGSPAGFPPGGFIPKTATTAKGSSSWQTSRPPAQGASWPPQAKPPPKACTQPRPNYASNFSVIGAREERGVRAPSFAQKPKVSENDFEDLLSNQGFSSRSDKKGPKTIAEMRKQDLAKDTDPLKLKLLDWIEGKERNIRALLSTLHTVLWDGESRWTPVGMADLVAPEQVKKHYRRAVLAVHPDKAAGQPYEQHAKMIFMELNDAWSEFENQGSRPLF | soluble
MSLNAPSNAPWLSHYDEGIPSSLAPYPRVTLPDILREAARKHPEDPALLFLGNTISYGELERESNAFAAALHASEVRKGNRVAVLLPNSPQMIIAEFGIWKAGGIAVMLNPLWTEHELERAIDECEAEIAVVLAPFYEKINHLRSRTSLKTVVITDLHDYFPAAMRNASPANGAVATMLQSSDLRMPAMIESYSGSQTPAVEVSPKDPALFIFSGGTTGKPKCAIGRHEASVMNGMQVDAWFRPVLGSDRVPVMLNLPLHHVYPQVAIIGYGFVTRSPLVLIPDPRDFELLIKTIKQYKVGLLPGIPTLFNALAAHPLLKEAPGSLDSLKLIISAAAPLHNKTRRRFKELTGATIIDAYGLTEAMVSPVCQPLNGIRKNGSVGLPVPDVEMRIVDADTGIEVLPSMEIGEIVIRSPQLMTGYWKNPEETAEVLRDGWLYTGDLGYIDDDGYLYIVDRKKDVIKPSGFQVWPSEVEEVIAMHPAVLETGVAGVPDDYQSEAVKAWVVLHKGHSLDAEQLKNWCRQTLAPYKVPKHIEFCEQLPKSALGKVLRQALVEQHLTSEGHHHHHH | soluble
MSLNAQNAGINFLHGTTWAEAVAKAKAENKLIFIDFYTQWCGPCMNMAQTVFSLPTVGYYYNQTFINLKIDAEEGEGITLAKKYGVRSYPTYAFVDPATEEIVHRSSSRQTPEQFIQTGKDANIPTKRSFYLQEQYTKGNRERAFLIDYINYHYSVYARNNVQAAFDELIKGGAKLTDPDVWEVYVNTINGMNPYLKQVSDNYADFCQRFGKKAVDAKLAKETSYGELAEIEALCNYEGKDFNLKMIRINNDIREQKYEAAATQIDAMIADTTVNQQELISRLKFIARLGYKAEELPEFWFNKCVGYLQYIAYNQTDRDDAFIHQEYAAALEMVLRKLNGKAPIPACLSTEPAYGKKVYNMRPDALKMKPKREGHHHHHH | soluble
MSLNDTFVVVDLETTGHSVKKGGRIIQIGMTFIKKRQIVDHFESFVNPGQLIDRQIQQLTHISQKDVQNAPYFEEIAPLLQNLLQNTVIIAHNVNFDYPYLNDEFERTGFPLLKSAAIDTVQLAQIMFPTAPGYRLLDLTTYLNITLKNAHRANADAHATALLFLKFWKKLEELPDITLKQLQQGDWPLLRQTQQFLKLVHSKNEGHHHHHH | not soluble
MSLNEQRFFRFLRERIGLDVESVGAPMVERALRQRCVAAGAMDLDDYWLRLQQSADEQQALIEAVIVPETWFFRYPESFTALASLAHKRLAQLAGARPLRLLSLPCSTGEEPYSLAMALFDAGMAPGAFLVDGMDISPSSVAKAGQAVYGRNAFRGSELGFRERYFDALDEGHRLHERVRQQVSLRVGNVLDPALASRDGLYDFVFCRNLLIYFDVPTQQRVFEVLKRLLHPQGVLFIGPAEGSLLARMGMRPLGIAQSFAYVRHEGDSAPLAAAPAQTAKRAFTTLPAPVYPQPSVPLPRSRRVLPVAARPARAREHSHEGASELLAGIARLANAGASEQARSECQRYLSQYPPSAQVYYWLGLLSDTEGDAQQALSHYRKALYLEPQHPEALVHLAALLAAQGDLAGARRLQERAARAGRESEREGHHHHHH | soluble
MSLNETKQFIKRHLFSARWLVRNLQQRYSTIERIAEFLAVNQYEFFTQPDGQLKPLTMKTIADALELHESTIARTVSNKYINSPKGIFSLRSFFTTKYTSEEGEDLSAKTVKEAILEIISGENKLRPFSDEKISEFLKSKGITCARRTVAKYRQALDLGNTQQRKKFHQSEGHHHHHH | soluble
MSLNEVHSIHGHTLLLITKPSLQATALLQHLKQSLAITGKLHNIQRSLDDISSGSIILLDMMEADKKLIHYWQDTLSRKNNNIKILLLNTPEDYPYRDIENWPHINGVFYAMEDQERVVNGLQGVLRGECYFTQKLASYLITHSGNYRYNSTESALLTHREKEILNKLRIGASNNEIARSLFISENTVKTHLYNLFKKIAVKNRTQAVSWANDNLREGHHHHHH | soluble
MSLNGNATDSSSSTSSMTENSDGQKQNNEWFHGVLQRQDADELLVKPGSFLLRASEVHGKMSMILSVRHDGKLHNIAVNSDTGENFWFEGHREKSIDQLVQWHMTTSTPITKTSGVKLKYPIGKADWIISHENVIFIKKLGEGAFGEVSLAECEIGGRKVETAVKTMRCQMTRDTRAAFMKEARLMRKYSHPHIVRIIGKIIVKHLPKVGLAVDAHPLMIVMEMCPHGSLLSFLRKNKGKTTLSERLRFCIESADGLAYLEKKQCLHRDIAARNCLLSITDQIKISDFGLSDDKRTEMHDDTLDKVPVKWLAPEVMQDKLYSLKSDVWAFGVLMWEIYADGADPYPGMTNLVTRAKIFCDDYRMTFPETTPPTISEIALKQCWAKLPSDRATMKTVHHKLKDLSMPMSDVSFSMKMKR | not soluble

Source: the DeepSol protein solubility set
